Reference: patent publication US20110183342A1

Target: HLA-B1501 (purified MHC class I molecule) (human)
Test: competition with a radiolabeled probe peptide for purified MHC class I

B1: Mtb8.4 5-15 peptide … (peptide)
peptide: AVINTTCNYGQ
modifications: not checked
B1 showed an IC50 of 10 nM.
